Laboratory results as given in patent publication US12391751B2, “Antibody against advanced glycation end products and use thereof” (Bloom Technology Corporation, priority 2018, dated 2025).

Assays:
[1] = Reactivity of SJ-5 with GLAP by competitive ELISA (Example 13); assay type: binding; settings: immobilized Glycer-AGEs-BSA
Description: A solution of BSA containing AGEs derived from glyceraldehyde (stock solution: 10 mg/mL PBS solution) prepared into 1 μg/mL in a coating solution was added at 100 μL/well to a 96-well microtiter plate (COSTAR) and incubated overnight at 4° C.
Each well after the immobilization treatment was washed three times with a washing solution (300 μL), and a blocking solution (200 μL) was added thereto and left at room temperature for 1 hour.
GAL13 (prepared in Example 2), GLAP (prepared in Example 12), and Z-Lys-OH (Tokyo Chemical Industry Co., Ltd.) were each dissolved in a phosphate buffer solution (0.2 M, pH 7.4) to prepare a 20 mg/mL solution. Sample solutions of 2-fold dilution series from 0.0063 to 2 mg/mL (6 points) were further prepared by dilution with a diluting solution. A POD-labeled novel monoclonal antibody (SJ-5) solution was diluted 16,000-fold with a diluting solution containing BSA (1 mg/mL, FUJIFILM Wako Pure Chemical Corp.) to prepare a POD-labeled SJ-5 antibody dilution solution. […]
Absorbance was measured at a dominant wavelength of 450 nm and a sub-wavelength of 650 nm with a microplate reader (Cytation 5, BioTek Instrument Inc.), and the absorbance at the sub-wavelength was subtracted from the absorbance at the dominant wavelength.

[2] = biological target: Fru-AGEs-BSA (Bos taurus, UniProt P02769); assay: Specificity of SJ-5 by competitive ELISA (Example 7); assay type: binding; settings: GAL13-BSA or Glycer-AGEs-BSA immobilized, POD-labeled SJ-5 0.4 μg/mL
[3] = tested on: CD31; assay: Endothelial-to-mesenchymal transition inhibition test, real-time PCR (Example 15); assay type: cell-based, human; settings: HUVEC; antibody pre-reacted with Glycer-AGEs-BSA
Description: (§1) 10 μL of Glycer-AGEs-BSA (10 mg/mL) prepared in Example 1, PBS, and 90 μL of SJ-5 (10 mg/mL) or a control antibody (10 mg/mL) were added to a 1.5 mL tube (Watson). Alternatively, 90 μL of a PBS solution of control BSA (10 mg/mL) was added. These solutions were left standing at room temperature for 10 minutes. Then, a supernatant was recovered by centrifugation at 14000 rpm for 15 minutes using a centrifuge (Thermo Fisher Scientific Inc.).
(§2) HUVEC was cultured in a 10 cm dish using 10 mL of a medium for HUVEC.
(§3) The cultured HUVEC was washed with 10 mL of PBS. Then, 1 mL of trypsin-EDTA was added thereto and left standing at room temperature for 3 minutes. HUVEC thus left standing was confirmed to be detached from the dish, and trypsin-EDTA was neutralized by the addition of 10 mL of a medium for HUVEC. After the neutralization, the whole amount was transferred to a 50 mL tube and centrifuged at 1500 rpm for 3 minutes using a centrifuge.
(§4) After the centrifugation, the supernatant was discarded, and precipitated cells were resuspended by the addition of 1 mL of a medium for HUVEC. A 10 μL aliquot from the resuspension was mixed with 10 μL of Trypan Blue, and 10 μL thereof was added to a counting chamber. Then, the number of live cells was counted in Auto Cell Counter EVE. The cell suspension was diluted into 2.5×10^5 cells/mL with a medium for HUVEC and inoculated at 400 μL/well to the Matrigel prepared in (1). After the inoculation, each reaction solution prepared in (2) was added at 100 μL/well, followed by culture for 8 hours in a CO2 incubator.
(§5) Each well was washed three times with 1 mL of PBS, and Cell Recovery Solution (Corning Inc.) was added at 500 μL/well.
(§6) The cells and the Matrigel matrix were scraped off using Blue Chip (Watson), recovered into a 1.5 mL tube, and transferred to the 1.5 mL tube after rinsing of each well again with 500 μL of Cell Recovery Solution. The 1.5 mL tube was mixed by inversion five times and then left standing on ice for 1 hour to confirm that the Matrigel matrix was completely degraded. After the Matrigel matrix degradation, a supernatant was discarded by centrifugation at 800 rpm at 4° C. Precipitated cells were gently suspended in 1 mL of ice-cooled PBS and centrifuged at 800 rpm at 4° C. to discard a supernatant. Precipitated cells were gently suspended again in 1 mL of ice-cooled PBS and centrifuged at 800 rpm at 4° C.
(§7) 125 μL of CellAmp Washing Buffer attached to the kit was added to the cells precipitated by centrifugation, and mixed. […]
(§8) After the addition, real-time PCR was performed with QuantStudio™ 12K Flex real-time PCR system (Thermo Fisher Scientific Inc.) to quantify gene expression levels. […]

[4] = tested on: α-SMA; assay: as above; assay type: cell-based, human; settings: HUVEC; antibody pre-reacted with Glycer-AGEs-BSA
Description: as §1, §2, §3, §4, §5, §6, §7, §8

Sequence of Fru-AGEs-BSA (P02769 25-607): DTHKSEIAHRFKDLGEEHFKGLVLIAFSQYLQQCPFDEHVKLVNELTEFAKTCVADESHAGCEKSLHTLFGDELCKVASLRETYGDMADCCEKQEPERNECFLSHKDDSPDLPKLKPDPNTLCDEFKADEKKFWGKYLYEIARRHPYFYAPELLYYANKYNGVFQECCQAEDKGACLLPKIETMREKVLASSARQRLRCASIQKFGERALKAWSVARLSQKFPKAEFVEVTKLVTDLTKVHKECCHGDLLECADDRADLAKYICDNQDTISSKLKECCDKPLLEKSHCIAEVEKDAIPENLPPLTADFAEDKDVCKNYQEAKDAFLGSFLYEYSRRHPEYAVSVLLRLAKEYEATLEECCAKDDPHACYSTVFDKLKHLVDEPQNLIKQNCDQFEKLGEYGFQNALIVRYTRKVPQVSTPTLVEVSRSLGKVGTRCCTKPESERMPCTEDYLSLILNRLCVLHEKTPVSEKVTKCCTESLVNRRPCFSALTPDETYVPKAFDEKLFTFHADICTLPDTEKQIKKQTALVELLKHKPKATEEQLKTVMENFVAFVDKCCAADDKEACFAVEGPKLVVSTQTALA

specificity: reactivity with Fru-AGEs-BSA [2]: negative
B1: SJ-5: mouse monoclonal antibody raised against GAL13-MSA; heavy-chain variable region SEQ ID NO 4, light-chain variable region SEQ ID NO 8 (antibody, listed as Mus musculus, V domains shown)
VH: EVMLVESGGRLVKPGGSLKLSCAASGFTFSSYGMSWVRQTPEKRLEWVATISGGGSYTYYPDSVKGRFTISRDNVKNNLYLQMSSLRSEDTALYYCARRGAYGDYGWFAYWGQGTLVTVSA
VL: DIVLTQSPATLSVTPGDSVSLSCRASQSINNNLHWYQQKSHESPRLLIKCASQSISGIPSRFSGSGSGTDFTLSINSVETEDFGMYFCQQSNSWPLTFGAGTKLELK
recognition of GLAP [1]: does not recognize
suppression of CD31 decrease caused by Glycer-AGEs-BSA [3]: suppressible
suppression of α-SMA increase caused by Glycer-AGEs-BSA [4]: suppressible
